# Biological target: tetrodotoxin (TTX)-resistant variant of sodium channel Nav1.6
# Assay: cell-based or functional assay
substance,measurement,value
full-length FHF2A protein (from UniProt Q92913 1-245),"channels not recovering from inactivation within 20 msec (two-pulse whole cell voltage clamp, FIG. 2) (fraction of channels)",0.33
same,"percent of channels undergoing long-term inactivation (voltage dependence protocol, FIG. 4)",35 to 40%
